Experimental data as given in patent US20250243240A1.

Molecular target: Vascular endothelial growth factor (VEGF) (Homo sapiens (Human)) (UniProt P15692)

relative titer: 6.6%
Substance: Peak 1 fraction of hydrophobic interaction chromatography of purified aflibercept (pool or library)
